Test results reported in patent US9618524B2, “Method, composition, isolation and identification of a plaque particle and related biomarker” (Plaxgen Inc., priority 2012, dated 2017).

B1: Isoform 2 of Glycogen synthase kinase-3 (protein)
chain: MSGRPRTTSFAESCKPVQQPSAFGSMKVSRDKDGSKVTTVVATPGQGPDRPQEVSYTDTKVIGNGSFGVVYQAKLCDSGELVAIKKVLQDKRFKNRELQIMRKLDHCNIVRLRYFFYSSGEKKDEVYLNLVLDYVPETVYRVARHYSRAKQTLPVIYVKLYMYQLFRSLAYIHSFGICHRDIKPQNLLLDPDTAVLKLCDFGSAKQLVRGEPNVSYICSRYYRAPELIFGATDYTSSIDVWSAGCVLAELLLGQPIFPGDSGVDQLVEIIKVLGTPTREQIREMNPNYTEFKFPQIKAHPWTKDSSGTGHFTSGVRVFRPRTPPEAIALCSRLLEYTPTARLTPLEACAHSFFDELRDPNVKLPNGRDTPALFNFTTQELSSNPPLATILIPPHARIQAAASTPTNATAASDANTGDRGQTNNAASASASNST
B2: Protein S100-A7 (protein)
chain: SNTQAERSIIGMIDMFHKYTRRDDKIEKPSLLTMMKENFPNFLSACDKKGTNYLADVFEKKDKNEDKKIDFSEFLSLLGDIATDYHKQSHGAAPCSGGSQ
B3: Isoform C of Fibulin-1 (protein)
chain: DVLLEACCADGHRMATHQKDCSLPYATESKECRMVQEQCCHSQLEELHCATGISLANEQDRCATPHGDNASLEATFVKRCCHCCLLGRAAQAQGQSCEYSLMVGYQCGQVFQACCVKSQETGDLDVGGLQETDKIIEVEEEQEDPYLNDRCRGGGPCKQQCRDTGDEVVCSCFVGYQLLSDGVSCEDVNECITGSHSCRLGESCINTVGSFRCQRDSSCGTGYELTEDNSCKDIDECESGIHNCLPDFICQNTLGSFRCRPKLQCKSGFIQDALGNCIDINECLSISAPCPIGHTCINTEGSYTCQKNVPNCGRGYHLNEEGTRCVDVDECAPPAEPCGKGHRCVNSPGSFRCECKTGYYFDGISRMCVDVNECQRYPGRLCGHKCENTLGSYLCSCSVGFRLSVDGRSCEDINECSSSPCSQECANVYGSYQCYCRRGYQLSDVDGVTCEDIDECALPTGGHICSYRCINIPGSFQCSCPSSGYRLAPNGRNCQDIDECVTGIHNCSINETCFNIQGGFRCLAFECPENYRRSAATRCERLPCHENRECSKLPLRITYYHLSFPTNIQAPAVVFRMGPSSAVPGDSMQLAITGGNEEGFFTTRKVSPHSGVVALTKPVPEPRDLLLTVKMDLSRHGTVSSFVAKLFIFVSAEL
B4: Protein-glutamine gamma-glutamyltransferase E (protein)
chain: AALGVQSINWQTAFNRQAHHTDKFSSQELILRRGQNFQVLMIMNKGLGSNERLEFIVSTGPYPSESAMTKAVFPLSNGSSGGWSAVLQASNGNTLTISISSPASAPIGRYTMALQIFSQGGISSVKLGTFILLFNPWLNVDSVFMGNHAEREEYVQEDAGIIFVGSTNRIGMIGWNFGQFEEDILSICLSILDRSLNFRRDAATDVASRNDPKYVGRVLSAMINSNDDNGVLAGNWSGTYTGGRDPRSWNGSVEILKNWKKSGFSPVRYGQCWVFAGTLNTALRSLGIPSRVITNFNSAHDTDRNLSVDVYYDPMGNPLDKGSDSVWNFHVWNEGWFVRSDLGPSYGGWQVLDATPQERSQGVFQCGPASVIGVREGDVQLNFDMPFIFAEVNADRITWLYDNTTGKQWKNSVNSHTIGRYISTKAVGSNARMDVTDKYKYPEGSDQERQVFQKALGKLKPNTPFAATSSMGLETEEQEPSIIGKLKVAGMLAVGKEVNLVLLLKNLSRDTKTVTVNMTAWTIIYNGTLVHEVWKDSATMSLDPEEEAEHPIKISYAQYEKYLKSDNMIRITAVCKVPDESEVVVERDIILDNPTLTLEVLNEARVRKPVNVQMLFSNPLDEPVRDCVLMVEGSGLLLGNLKIDVPTLGPKEGSRVRFDILPSRSGTKQLLADFSCNKFPAIKAMLSIDVAE
B5: Isoform B of Fibulin-1 (protein)
chain: DVLLEACCADGHRMATHQKDCSLPYATESKECRMVQEQCCHSQLEELHCATGISLANEQDRCATPHGDNASLEATFVKRCCHCCLLGRAAQAQGQSCEYSLMVGYQCGQVFQACCVKSQETGDLDVGGLQETDKIIEVEEEQEDPYLNDRCRGGGPCKQQCRDTGDEVVCSCFVGYQLLSDGVSCEDVNECITGSHSCRLGESCINTVGSFRCQRDSSCGTGYELTEDNSCKDIDECESGIHNCLPDFICQNTLGSFRCRPKLQCKSGFIQDALGNCIDINECLSISAPCPIGHTCINTEGSYTCQKNVPNCGRGYHLNEEGTRCVDVDECAPPAEPCGKGHRCVNSPGSFRCECKTGYYFDGISRMCVDVNECQRYPGRLCGHKCENTLGSYLCSCSVGFRLSVDGRSCEDINECSSSPCSQECANVYGSYQCYCRRGYQLSDVDGVTCEDIDECALPTGGHICSYRCINIPGSFQCSCPSSGYRLAPNGRNCQDIDECVTGIHNCSINETCFNIQGGFRCLAFECPENYRRSAATQKSKKGRQNTPAGSSKEDCRVLPWKQGLEDTHLDA
B6: Pregnancy zone protein (protein)
chain: TEPQYMVLVPSLLHTEAPKKGCVLLSHLNETVTVSASLESGRENRSLFTDLVAEKDLFHCVSFTLPRISASSEVAFLSIQIKGPTQDFRKRNTVLVLNTQSLVFVQTDKPMYKPGQTVRFRVVSVDENFRPRNELIPLIYLENPRRNRIAQWQSLKLEAGINQLSFPLSSEPIQGSYRVVVQTESGGRIQHPFTVEEFVLPKFEVKVQVPKIISIMDEKVNITVCGEYTYGKPVPGLATVSLCRKLSRVLNCDKQEVCEEFSQQLNSNGCITQQVHTKMLQITNTGFEMKLRVEARIREEGTDLEVTANRISEITNIVSKLKFVKVDSHFRQGIPFFAQVLLVDGKGVPIPNKLFFISVNDANYYSNATTNEQGLAQFSINTTSISVNKLFVRVFTVHPNLCFHYSWVAEDHQGAQHTANRVFSLSGSYIHLEPVAGTLPCGHTETITAHYTLNRQAMGELSELSFHYLIMAKGVIVRSGTHTLPVESGDMKGSFALSFPVESDVAPIARMFIFAILPDGEVVGDSEKFEIENCLANKVDLSFSPAQSPPASHAHLQVAAAPQSLCALRAVDQSVLLMKPEAELSVSSVYNLLTVKDLTNFPDNVDQQEEEQGHCPRPFFIHNGAIYVPLSSNEADIYSFLKGMGLKVFTNSKIRKPKSCSVIPSVSAGAVGQGYYGAGLGVVERPYVPQLGTYNVIPLNNEQSSGPVPETVRSYFPETWIWELVAVNSSGVAEVGVTVPDTITEWKAGAFCLSEDAGLGISSTASLRAFQPFFVELTMPYSVIRGEVFTLKATVLNYLPKCIRVSVQLKASPAFLASQNTKGEESYCICGNERQTLSWTVTPKTLGNVNFSVSAEAMQSLELCGNEVVEVPEIKRKDTVIKTLLVEAEGIEQEKTFSSMTCASGANVSEQLSLKLPSNVVKESARASFSVLGDILGSAMQNIQNLLQMPYGCGEQNMVLFAPNIYVLNYLNETQQLTQEIKAKAVGYLITGYQRQLNYKHQDGSYSTFGERYGRNQGNTWLTAFVLKTFAQARSYIFIDEAHITQSLTWLSQMQKDNGCFRSSGSLLNNAIKGGVEDEATLSAYVTIALLEIPLPVTNPIVRNALFCLESAWNVAKEGTHGSHVYTKALLAYAFSLLGKQNQNREILNSLDKEAVKEDNLVHWERPQRPKAPVGHLYQTQAPSAEVEMTSYVLLAYLTAQPAPTSGDLTSATNIVKWIMKQQNAQGGFSSTQDTVVALHALSRYGAATFTRTEKTAQVTVQDSQTFSTNFQVDNNNLLLLQQISLPELPGEYVITVTGERCVYLQTSMKYNILPEKEDSPFALKVQTVPQTCDGHKAHTSFQISLTISYTGNRPASNMVIVDVKMVSGFIPLKPTVKMLERSSSVSRTEVSNNHVLIYVEQVTNQTLSFSFMVLQDIPVGDLKPAIVKVYDYYETDESVVAEYIAPCSTDTEHGNV

How the values were obtained:
Assay in all cases: Mass spectroscopy proteomics, semi-quantitative binding affinity of serum proteins (plaqueproteome, Table 2)
Settings in all cases: higher number = stronger affinity
[1] = target: T1, Abeta-42 plaque particles (Homo sapiens, UniProt P05067)
T1 construct: Abeta 1-42
Outline: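 AD patient serum or plasma (50% in PBS) was incubated with Abeta-42 aggregates (30 μg) for 1 h at 37 °C, then stained with Thioflavin S for 30 min. Labeled particles were FACS-sorted, trypsin/Lys-C digested overnight and analyzed by MS/MS. Sequest searched human UniProt; Scaffold/Protein Prophet validated the identifications.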

[2] = target: T2, alpha-synuclein plaque particles (Homo sapiens, UniProt P37840)
T2 construct: 140 amino acids polypeptide
Outline: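 AD-subject plasma or serum (800 μL of 50%) mixed with 30 μg preformed alpha-synuclein aggregates for 1 h at 37 °C; Thioflavin S-positive particles isolated by flow sorting. After reduction, acrylamide alkylation and overnight tryptic digestion, serum proteins identified by MS/MS with Sequest and Scaffold.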

[3] = test system: High Density cholesterol (Chl Large) plaque particles; design: species or system human
Outline: (§1)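 Read-out is MS/MS protein identification (Sequest, strict trypsin, 20 ppm parent tolerance; Scaffold probabilities) of serum proteins bound to flow-sorted cholesterol plaque particles. These particles formed when 50% atherosclerotic serum was incubated with 30 μg cholesterol aggregates for 1 hr at 37° C.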

[4] = test system: Low density cholesterol (Chl small) plaque particles; design: species or system human
Outline: as §1

Tau plaque particles = test system: Tau plaque particles; design: species or system human
Outline: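 Synthetic Tau-74 and Tau-275 peptides (1 mg/mL PBS, 37° C, 2 h) aggregated; 30 μg aggregates incubated with 50% serum/plasma 1 h at 37° C, stained with Thioflavin S, and plaque particles sorted by flow cytometry. Bound proteins trypsin-digested and identified by MS/MS against human UniProt.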

| Molecule | Semi-quantitative analysis of proteins binding to different plaque particles: Abeta-42 [1] | Semi-quantitative analysis of proteins binding to different plaque particles: Synuclein [2] | Semi-quantitative analysis of proteins binding to different plaque particles: Chl Large [3] | Semi-quantitative analysis of proteins binding to different plaque particles: Chl small [4] | Semi-quantitative analysis of proteins binding to different plaque particles: Tau (Tau plaque particles) |
| --- | --- | --- | --- | --- | --- |
| B1 | 4 | 0 | 0 | 0 | 0 |
| B2 | 2 | 0 | 0 | 0 | 0 |
| B3 | 0 | 1 | 1 | 2 | 0 |
| B4 | 2 | 0 | 0 | 0 | 0 |
| B5 | 0 | 1 | 3 | 3 | 0 |
| B6 | 4 | 0 | 0 | 2 | 0 |
